Experimental findings from patent US6689567 (UNIVERSITY OF GUELPH, dated 2004) are described below.

This data set concerns the molecule itself. Put plainly: gel filtration on G100 Sephadex; self-association (homodimer). (In general: In gel filtration, larger molecules generally elute earlier.)

B1: FlaA1 from Helicobacter pylori carrying a N-terminal hexahistidine tag (enzyme)
chain: MHHHHHHGSMSMPNHQNMLDNQTILITGGTGSFGKCFVRKVLDTTNAKKIIVYSRDELKQSEMAMEFNDPRMRFFIGDVRDLERLNYALEGVDICIHAAALKHVPIAEYNPLECIKTNIMGASNVINACLKNAISQVIALSTDKAANPINLYGATKLCSDKLFVSANNFKGSSQTQFSVVRYGNVVGSRGSVVPFFKKLVQNKASEIPITDIRMTRFWITLDEGVSFVLKSLKRMHGGEIFVPKIPSMKMTDLAKALAPNTPTKIIGIRPGEKLHEVMIPKDESHLALEFEDFFIIQPTISFQTPKDYTLTKLHEKGQKVAPDFEYSSHNNNQWLEPDDLLKLL
notes: Full-length FlaA1 with an N-terminal hexahistidine tag, overexpressed in E. coli (pET system) and purified; also called HP0840; His-FlaA1
Turning to B1, the binding result is recorded as “binds”.
